One substance from publication doi:10.1101/2023.10.24.563883 can be followed below.

In the assay the target is LPHN2-ICL1-Nluc (UniProt O95490). As to the kind of experiment: FRET or BRET. Background: In BRET a luciferase serves as donor, and the signal depends on an acceptor being close.
LPHN2-ICL1-Nluc, sequence (O95490 26-1459): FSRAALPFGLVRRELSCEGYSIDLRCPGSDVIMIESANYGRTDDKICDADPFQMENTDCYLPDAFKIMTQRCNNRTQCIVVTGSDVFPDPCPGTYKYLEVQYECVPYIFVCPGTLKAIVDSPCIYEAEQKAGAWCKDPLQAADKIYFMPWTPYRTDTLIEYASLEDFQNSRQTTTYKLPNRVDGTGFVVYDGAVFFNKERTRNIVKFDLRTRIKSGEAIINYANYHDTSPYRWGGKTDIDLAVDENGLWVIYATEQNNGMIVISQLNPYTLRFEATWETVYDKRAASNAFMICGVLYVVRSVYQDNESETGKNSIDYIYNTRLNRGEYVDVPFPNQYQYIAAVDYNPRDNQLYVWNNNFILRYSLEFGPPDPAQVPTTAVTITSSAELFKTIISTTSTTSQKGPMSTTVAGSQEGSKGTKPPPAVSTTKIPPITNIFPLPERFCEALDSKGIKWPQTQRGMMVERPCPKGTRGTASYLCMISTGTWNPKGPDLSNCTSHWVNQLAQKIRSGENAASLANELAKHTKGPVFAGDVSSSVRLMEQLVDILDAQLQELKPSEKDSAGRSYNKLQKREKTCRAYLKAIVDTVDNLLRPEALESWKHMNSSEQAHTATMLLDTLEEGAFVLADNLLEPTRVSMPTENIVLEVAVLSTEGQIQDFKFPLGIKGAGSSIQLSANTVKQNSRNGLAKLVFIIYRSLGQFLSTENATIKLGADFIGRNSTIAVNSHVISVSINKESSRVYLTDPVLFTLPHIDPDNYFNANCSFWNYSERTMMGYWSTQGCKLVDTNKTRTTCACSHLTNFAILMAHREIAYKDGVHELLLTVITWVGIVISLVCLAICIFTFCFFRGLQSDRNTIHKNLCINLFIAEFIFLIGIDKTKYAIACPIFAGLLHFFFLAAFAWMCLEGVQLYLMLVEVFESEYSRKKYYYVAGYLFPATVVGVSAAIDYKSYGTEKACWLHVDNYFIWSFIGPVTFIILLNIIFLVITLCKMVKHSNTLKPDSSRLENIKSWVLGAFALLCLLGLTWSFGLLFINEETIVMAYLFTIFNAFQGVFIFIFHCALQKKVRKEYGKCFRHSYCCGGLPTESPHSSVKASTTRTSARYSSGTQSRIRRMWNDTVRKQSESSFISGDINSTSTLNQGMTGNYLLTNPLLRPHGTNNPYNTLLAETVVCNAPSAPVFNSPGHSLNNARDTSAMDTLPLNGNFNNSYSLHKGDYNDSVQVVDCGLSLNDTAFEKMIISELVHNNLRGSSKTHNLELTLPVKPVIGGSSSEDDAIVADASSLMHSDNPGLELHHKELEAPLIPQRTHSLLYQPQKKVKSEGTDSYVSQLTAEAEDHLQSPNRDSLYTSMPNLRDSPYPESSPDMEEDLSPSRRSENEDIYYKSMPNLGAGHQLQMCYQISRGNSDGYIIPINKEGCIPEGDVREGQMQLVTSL

“TMC1-C-YFP (from UniProt Q8TDI8 1-760) (natural protein)” came in with an EC50 of force for the increase of the BRET signal of 5.2 pN and a stoichiometry N (TMC1 per LPHN2) of 2.
